Assay results taken from PMC3462262 (Molecular cell, 2012).

Target: Ub subunit of the UbcH5c-O~Ub conjugate (UniProt P0CG48 1-76, C-terminus oxyester-linked to Ser85 of UbcH5c)
Test: NMR titration

- binding result: binds
B1: UbcH5c subunit of the UbcH5c-O~Ub conjugate (Cys85Ser, S22R) (enzyme)
chain: not shown
modifications: active site Ser85 oxyester-linked to the Ub C-terminus
